According to publication PMC8368726, “Granzyme A Produced by γ9δ2 T Cells Activates ER Stress Responses and ATP Production, and Protects Against Intracellular Mycobacterial Replication Independent of Enzymatic Activity” (Frontiers in Immunology, 2021):

Molecular target: the molecule itself
Assay: non-reducing SDS gel electrophoresis (silver stain and western blot); purified GzmA run under non-reducing conditions; homodimer at ~50 kDa and polymers of it

B1: Native human Granzyme A (enzyme, UniProt P12544 29-262, looked up)
chain: IIGGNEVTPHSRPYMVLLSLDRKTICAGALIAKDWVLTAAHCNLNKRSQVILGAHSITREEPTKQIMLVKKEFPYPCYDPATREGDLKLLQLMEKAKINKYVTILHLPKKGDDVKPGTMCQVAGWGRTHNSASWSDTLREVNITIIDRKVCNDRNHYNFNPVIGMNMVCAGSLRGGRDSCNGDSGSPLLCEGVFRGVTSFGLENKCGDPRGPGVYILLSKKHLNWIIMTIKGAV
notes: Granzyme A (GzmA), native human protein, commercially obtained; Some monomer at ~25 kDa is seen beside the homodimer; also called NhGzmA; native GzmA; source: bought: TheraTest (Lombard, IL)
  binding result: binds
